Molecular target: T1, Acro COVID S1 (S1N-C82E8) (SARS-CoV-2, UniProt P0DTC2 16-685)
T1 construct: domain: S1 (subunit 1)
Assay: phage ELISA

B1: SARS-CoV-2 variant 1-38 (antibody, V domains shown)
VH: EVQLLESGGGLVQPGGSLRLSCAASGITFSSYAMSWVRQAPGKGLEWVSGISGSGGSTYYADSVKGRFTISRDNSKNTLYLQMNSLRAEDTAVYYCAKHGSGTIFGVVIAKYYFDYWGQGTLVTVSS
VL: QSALTQPASVSGSPGQSITISCTGTSSDIGSYNLVSWYQQHPGKAPKLMIYEGTKRPSGVSNRFSGSKSGNTASLTISGLQAEDEADYYCCSYAGSRTYVFGGGTKLTVL
specificity ELISA, fold over background: 1.1 fold over background

B2: SARS-CoV-2 variant 1-42 (antibody, V domains shown)
VH: EVQLLESGGGLVQPGGSLRLSCAASGVTFSSYAMSWVRQAPGKGLEWVSAITGSGGSTYYADSVKGRFTISRDNSKNTLYLQMNSLRAEDTAVYYCAKHGSGTIFGVVIAKYYFDYWGQGTLVTVSS
VL: QSALTQPASVSGSPGQSITISCTGTSSDVGRYNLVSWYQQHPGKAPKLMIYEGGKRPSGVSNRFSGSKSGNTASLTISGLQAEDEADYYCCSYASSSTLVFGGGTKLTVL
specificity ELISA, fold over background: 22.7 fold over background

B3: SARS-CoV-2 variant 1-22 (antibody, V domains shown)
VH: EVQLLESGGGLVQPGGSLRLSCAASGFTFSSYAMNWVRQAPGKGLEWVSIISGSGGSTYYADSVKGRFTISRDNSKNTLYLQMNSLRAEDTAVYYCAREGYRDYLWYFDLWGQGTLVTVSS
VL: QSALTQPASVSGSPGQSITISCTGTSTDVGSYNLVSWYQQHPGKAPKLMIYEGSQRPSGVSNRFSGSKSGNTASLTISGLQAEDEADYYCCSYAGSSTVFGGGTKLTVL
specificity ELISA, fold over background: 32.7 fold over background

B4: SARS-CoV-2 variant 1-23 (antibody, V domains shown)
VH: EVQLLESGGGLVQPGGSLRLSCAASGFTFSSYAISWVRQAPGKGLEWVSIISGSGGSTYYADSVKGRFTISRDNSKNTLYLQMNSLRAEDTAVYYCAREGYRDYLWYFDLWGQGTLVTVSS
VL: QSALTQPASVSGSPGQSITISCTGTSNDVGSYNLVSWYQQHPGKAPKLMIYEGNKRPSGVSNRFSGSKSGNTASLTISGLQAEDEADYYCCSYAGSYTVFGGGTKLTVL
specificity ELISA, fold over background: 5.1 fold over background

B5: SARS-CoV-2 variant 1-24 (antibody, V domains shown)
VH: EVQLLESGGGLVQPGGSLRLSCAASGFTFSSYAMNWVRQAPGKGLEWVSIISGSGGSTYYADSVKGRFTISRDNSKNTLYLQMNSLRAEDTAVYYCAREGYRDYLWYFDLWGQGTLVTVSS
VL: QSALTQPASVSGSPGQSITISCTGTSSDVGYYNLVSWYQQHPGKAPKLMIYEGNKRPSGVSNRFSGSKSGNTASLTISGLQAEDEADYYCCSYAGGSVVFGGGTKLTVL
specificity ELISA, fold over background: 12.9 fold over background

B6: SARS-CoV-2 variant 1-10 (antibody, V domains shown)
VH: EVQLLESGGGLVQPGGSLRLSCAASGFTFSSYDMSWVRQAPGKGLEWVSVISGSGGSTYYADSVKGRFTISRDNSKNTLYLQMNSLRAEDTAVYYCAKGPLVGWYFDLWGQGTLVTVSS
VL: QSALTQPASVSGSPGQSITISCTGTSSNVGSYNLVSWYQQHPGKAPKLMIYEGTKRPSGVSNRFSGSKSGNTASLTISGLQAEDEADYYCCSYAGSSSFVVFGGGTKLTVL
specificity ELISA, fold over background: 17.4 fold over background

B7: SARS-CoV-2 variant 1-30 (antibody, V domains shown)
VH: EVQLLESGGGLVQPGGSLRLSCAASGFTFSSYAMTWVRQAPGKGLEWVSAISGSGGSTFYADSVKGRFTISRDNSKNTLYLQMNSLRAEDTAVYYCTRPPYGDYGDYWGQGTLVTVSS
VL: QSALTQPASVSGSPGQSITISCTGTSRDVGSYNLVSWYQQHPGKAPKLMIYEGTKRPSGVSNRFSGSKSGNTASLTISGLQAEDEADYYCCSYAGSRTPVVFGGGTKLTVL
specificity ELISA, fold over background: 16.8 fold over background

B8: SARS-CoV-2 variant 1-2 (antibody, V domains shown)
VH: EVQLLESGGGLVQPGGSLRLSCAASGFTFSSQAMSWVRQAPGKGLEWVSAISGSGGGTYYADSVKGRFTISRDNSKNTLYLQMNSLRAEDTAVYYCAKDRRFGEFDPWGQGTLVTVSS
VL: QSALTQPASVSGSPGQSITISCTGTSSGVGSYNLVSWYQQHPGKAPKLMIYEGIKRPSGVSNRFSGSKSGNTASLTISGLQAEDEADYYCCSYAGSSSFVVFGGGTKLTVL
specificity ELISA, fold over background: 1.8 fold over background

B9: SARS-CoV-2 variant 1-9 (antibody, V domains shown)
VH: EVQLLESGGGLVQPGGSLRLSCAASGFTFSSYDMSWVRQAPGKGLEWVSVISGSGGSTYYADSVKGRFTISRDNSKNTLYLQMNSLRAEDTAVYYCAKGPLVGWYFDLWGQGTLVTVSS
VL: QSALTQPASVSGSPGQSITISCTGTSSDVGDYNLVSWYQQHPGKAPKLMIYEGSNRPSGVSNRFSGSKSGNTASLTISGLQAEDEADYYCCSYAGSSSFVVFGGGTKLTVL
specificity ELISA, fold over background: 10.7 fold over background

B10: SARS-CoV-2 variant 1-31 (antibody, V domains shown)
VH: EVQLLESGGGLVQPGGSLRLSCAASGFTFSSYAMNWVRQAPGKGLEWVSAISGSGGSTFYADSVKGRFTISRDNSKNTLYLQMNSLRAEDTAVYYCTRPPYGDYGDYWGQGTLVTVSS
VL: QSALTQPASVSGSPGQSITISCTGTSSDVGKYNLVSWYQQHPGKAPKLMIYEGSQRPSGVSNRFSGSKSGNTASLTISGLQAEDEADYYCCSYAGSRTPVVFGGGTKLTVL
specificity ELISA, fold over background: 30.4 fold over background

B11: SARS-CoV-2 variant 1-3 (antibody, V domains shown)
VH: EVQLLESGGGLVQPGGSLRLSCAASGFTFSSQAMSWVRQAPGKGLEWVSAISGSGGGTYYADSVKGRFTISRDNSKNTLYLQMNSLRAEDTAVYYCAKDRRFGEFDPWGQGTLVTVSS
VL: QSALTQPASVSGSPGQSITISCTGISSDVGSYNLVSWYQQHPGKAPKLMIYEGTKRPSGVSNRFSGSKSGNTASLTISGLQAEDEADYYCCSYAGSSSFVVFGGGTKLTVL
specificity ELISA, fold over background: 1.6 fold over background

B12: SARS-CoV-2 variant 1-4 (antibody, V domains shown)
VH: EVQLLESGGGLVQPGGSLRLSCAASGFTFSSQAMSWVRQAPGKGLEWVSAISGSGGGTYYADSVKGRFTISRDNSKNTLYLQMNSLRAEDTAVYYCAKDRRFGEFDPWGQGTLVTVSS
VL: QSALTQPASVSGSPGQSITISCTGTSSDVGTYNLVSWYQQHPGKAPKLMIYEGSQRPSGVSNRFSGSKSGNTASLTISGLQAEDEADYYCCSYAGSSSFVVFGGGTKLTVL
specificity ELISA, fold over background: 1 fold over background

B13: SARS-CoV-2 variant 1-33 (antibody, V domains shown)
VH: EVQLLESGGGLVQPGGSLRLSCAASGFTFSSYAMIWVRQAPGKGLEWVSAISGSGGSTFYADSVKGRFTISRDNSKNTLYLQMNSLRAEDTAVYYCTRPPYGDYGDYWGQGTLVTVSS
VL: QSALTQPASVSGSPGQSITISCTGTSSDVGSYNLLSWYQQHPGKAPKLMIYEASKRPSGVSNRFSGSKSGNTASLTISGLQAEDEADYYCCSYAGSRTPVVFGGGTKLTVL
specificity ELISA, fold over background: 7.1 fold over background

B14: SARS-CoV-2 variant 1-7 (antibody, V domains shown)
VH: EVQLLESGGGLVQPGGSLRLSCAASGFTFSSYDMSWVRQAPGKGLEWVSVISGSGGSTYYADSVKGRFTISRDNSKNTLYLQMNSLRAEDTAVYYCAKGPLVGWYFDLWGQGTLVTVSS
VL: QSALTQPASVSGSPGQSITISCTGTSSDFGSYNLVSWYQQHPGKAPKLMIYEGNKRPSGVSNRFSGSKSGNTASLTISGLQAEDEADYYCCSYAGSSTFVVFGGGTKLTVL
specificity ELISA, fold over background: 6.8 fold over background

B15: SARS-CoV-2 variant 1-5 (antibody, V domains shown)
VH: EVQLLESGGGLVQPGGSLRLSCAASGFTFSSQAMSWVRQAPGKGLEWVSAISGSGGGTYYADSVKGRFTISRDNSKNTLYLQMNSLRAEDTAVYYCAKDRRFGEFDPWGQGTLVTVSS
VL: QSALTQPASVSGSPGQSITISCTGTSSGVGSYNLVSWYQQHPGKAPKLMIYEASKRPSGVSNRFSGSKSGNTASLTISGLQAEDEADYYCCSYAGSYTFAVFGGGTKLTVL
specificity ELISA, fold over background: 1.5 fold over background
